Consider 3 molecules from US20250236644A1 (University of Washington, published 2025).

In assay [1] the target is T1, effector peptide cs074B.
T1 construct: Chemically synthesized, unlabeled
T1 peptide: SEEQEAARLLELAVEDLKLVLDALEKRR
Kind of assay: FRET titration, 2 nM labeled hinge. As for the experimental part:
(§1) Dotted lines in spectra indicate acceptor and donor emission peaks. B) Kinetic model describing the coupling of the conformational equilibrium to the binding equilibrium. X and Y: hinge in state X and Y, respectively; P: peptide; YP: peptide bound to hinge in state Y. k₁, k₋₁, k₋₂, and […] the microscopic rate constants. C) FP characterization of unlabeled extended hinge cs074F. From left to right: binding titration at 0.1 nM TAMRA-labeled peptide and varying hinge concentrations; time course after mixing 2 nM TAMRA-labeled peptide and 100 nM hinge fitted with a single-exponential equation (black line); apparent rate constants obtained from single-exponential kinetic fits plotted against absolute hinge concentrations (circles) and fitted with a linear equation (black line). D) FRET-based reversibility experiment using the labeled extended hinge […] introduced in C). Hinge concentration is 30 nM for all traces; 1 μM peptide is added at t=0, 3 μM unlabeled competitor hinge is added after 1 h. E) Top from left to right: schematic representation of the inpainting procedure that adds two helices to the peptide cs074B yielding a three-helix bundle (3hb); cylindrical representation of 3hb_05 bound to hinge cs074; overlay of design model and crystal structure of 3hb_05. Bottom from left to right: SEC traces for hinge cs074, 3hb_05, and a mixture of both; FRET-based titration of 2 nM extended labeled hinge cs074F and varying concentrations of 3hb_05 fitted with a standard binding isotherm (back line); Distance distributions obtained from DEER experiments as described in FIG. 2 (cs074, cs074+peptide cs074B, cs074+3hb_05).
(§2) Titrations were carried out in 96-well format, with 4 replicates per plate and 24 data points per titration (23 steps of two-fold serial dilution of effector (peptide or 3hb) in the presence of double-labeled hinge at a constant concentration of 2 nM) with a final sample volume of 80 μl per well. Titration plates were incubated overnight at room temperature before measuring to ensure complete equilibration. The raw fluorescence signal (donor emission upon acceptor excitation) was fitted to the equation

In assay [2] the target is T2, effector peptide cs201B.
T2 construct: Unlabeled
T2 peptide: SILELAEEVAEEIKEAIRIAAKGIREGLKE
Kind of assay: FRET titration, 2 nM labeled hinge. The method, then: as §1, §2

In assay [3] the target is T3, effector protein 3hb21.
T3 construct: Three-helix bundle built around peptide cs221B
T3 chain: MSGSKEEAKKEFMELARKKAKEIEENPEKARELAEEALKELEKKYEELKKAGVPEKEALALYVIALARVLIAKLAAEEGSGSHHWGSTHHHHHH
The experiment in a line: FRET kinetics; 5 nM hinge, 3hb varied. The method, then:
(§3) FIG. 18. FRET-based quantitative analysis of the interaction between cs221F and 3hb21. Individual kinetic traces were obtained using a constant hinge concentration of 5 nM and varying 3hb concentrations as indicated by plot labels. Single exponential fits give apparent rate constants that increase linearly with the total 3hb concentration (points in pseudo-first order plot). The linear fit of kₐₚₚ against 3hb concentration gives an observed on rate that is 5 times faster than the observed on rate of the original peptide.
(§4) For FRET kinetics experiments a 2× hinge solution and 8 different 2× effector solutions at different concentrations were prepared separately. 40 μl of each effector solution were mixed with 40 μl hinge solution using a multichannel pipet and the measurement was started immediately after mixing. Fluorescence signals S at each concentration were fitted individually to the equation

Assay [4] concerns the target T3, effector protein 3hb21. Kind of assay: FRET titration; 2 nM hinge cs221F, 3hb varied. As for the experimental part: as §3, §2
Assay [5] addresses T4, effector peptide cs221B.
T4 construct: Unlabeled
T4 peptide: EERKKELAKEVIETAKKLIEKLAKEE
Kind of assay: FRET titration; 2 nM labeled hinge, effector varied. The method, then:
as §1, §2

In assay [6] the target is T3, effector protein 3hb21. The description is as above. The method, then: as §1, §2
The target in assay [7] is T4, effector peptide cs221B. The experiment in a line: FRET kinetics; slope of kapp against peptide concentration. The method, then:
(§5) FIG. 14. Columns 1-3: FRET kinetics using extended hinges labeled with AlexaFluor™ 555 and AlexaFluor™ 647 at a constant concentration (2 nM for cs201F and cs074F, 5 nM for cs221F) and corresponding peptides at varying concentrations. Column 4: FP kinetics using TAMRA-labeled peptide cs074B at 2 nM and extended hinge cs074F at varying concentrations. All kinetic traces (rows 1-8) were fitted using a single-exponential equation (black lines). […] The slope of the linear fit gives the observed on rate kₒₙ.
as §4

The target of assay [8] is T3, effector protein 3hb21. Kind of assay: FRET kinetics; 5 nM labeled hinge, slope of kapp against 3hb concentration.
Assay [9] concerns the target T1, effector peptide cs074B. The experiment in a line: FRET titration; 2 nM labeled hinge, effector varied. As for the experimental part:
as §1, §2

For another assay, the target named is T5, effector protein 3hb03.
T5 construct: Three-helix bundle built around peptide cs074B
T5 chain: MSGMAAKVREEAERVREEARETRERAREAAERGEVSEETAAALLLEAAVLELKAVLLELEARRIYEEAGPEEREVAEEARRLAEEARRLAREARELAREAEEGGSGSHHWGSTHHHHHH
The description is as above. As for the experimental part: as §1, §2

In a further assay the target is T6, effector protein 3hb04.
T6 construct: Three-helix bundle built around peptide cs074B
T6 chain: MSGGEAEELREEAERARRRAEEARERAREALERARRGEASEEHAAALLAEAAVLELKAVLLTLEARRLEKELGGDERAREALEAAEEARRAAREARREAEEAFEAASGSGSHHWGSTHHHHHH
The description is as above. The method, then:
as §1, §2

A further assay concerns the target T7, effector protein 3hb05.
T7 construct: Three-helix bundle built around peptide cs074B
T7 chain: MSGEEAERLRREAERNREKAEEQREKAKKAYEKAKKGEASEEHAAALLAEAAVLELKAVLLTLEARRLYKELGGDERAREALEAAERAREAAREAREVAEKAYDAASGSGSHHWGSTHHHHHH
The assay is described as above. As for the experimental part: as §1, §2

For a further assay, the target named is T8, effector protein 3hb08.
T8 construct: Three-helix bundle built around peptide cs074B
T8 chain: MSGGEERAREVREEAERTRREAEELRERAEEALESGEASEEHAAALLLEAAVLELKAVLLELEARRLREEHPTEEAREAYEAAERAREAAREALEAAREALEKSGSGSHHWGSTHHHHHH
The description is as above. The method, then: as §1, §2

Another assay deals with T9, effector protein 3hb11.
T9 construct: Three-helix bundle built around peptide cs074B
T9 chain: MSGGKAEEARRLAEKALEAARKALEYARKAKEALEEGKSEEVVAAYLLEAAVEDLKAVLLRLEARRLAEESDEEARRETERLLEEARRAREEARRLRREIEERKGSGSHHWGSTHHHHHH
The assay is described as above. The method, then: as §1, §2

The target of another assay is T10, effector protein 3hb12.
T10 construct: Three-helix bundle built around peptide cs074B
T10 chain: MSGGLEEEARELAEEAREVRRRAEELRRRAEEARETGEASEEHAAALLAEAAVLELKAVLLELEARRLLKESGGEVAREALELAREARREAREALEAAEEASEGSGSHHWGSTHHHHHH
Described as above. As for the experimental part:
as §1, §2

Assay [10] concerns the target T1, effector peptide cs074B. The experiment in a line: FRET kinetics; slope of kapp against peptide concentration. As for the experimental part: as §5, §4
The target in assay [11] is T2, effector peptide cs201B. The experiment in a line: FRET titration; 2 nM labeled hinge, off-target peptide varied. The method, then: (§6) The buffer for all FRET measurements was 20 mM Tris-HCl, 100 mM NaCl, 0.05% v/v TWEEN®20 at pH 8. Fluorescence spectra were recorded at room temperature using a FluoroMax™ spectrometer in a 1 cm×1 cm cuvette at a sample volume of 3 ml. FRET titrations and kinetics measurements were performed at 25° C. in 96-well plates (Corning 3686) using a Synergy Neo2™ plate reader. Excitation wavelength was 520 nm and emission wavelength was 665 nm (except for donor-donor controls for which emission wavelength was 555 nm, see FIG. 13B right column).
as §2

Assay [12] deals with T4, effector peptide cs221B. Described as above. The method, then:
as §6, §2

Assay [13] has as its target T4, effector peptide cs221B. Kind of assay: FRET titration, 2 nM labeled hinge. The method, then:
as §1, §2

Assay [14] deals with T2, effector peptide cs201B. Kind of assay: FRET titration; 2 nM labeled hinge, effector varied. The method, then: as §1, §2
The target in assay [15] is T2, effector peptide cs201B. The experiment in a line: FRET kinetics; slope of kapp against peptide concentration. As for the experimental part: as §5, §4

B1: FRET(extension) cs221F, labeled with AlexaFluor 555 and AlexaFluor 647 (designed binder)
chain: MSGEMVEEIEKLAEELAKKTKDCEVKKLAKKAAELAKKSTDEMKKEIVKDALELALRTKDEEVIRLALKAAVLAAESDDEEVKEVVKKALEAALKSKDEEVIRLLLLAAVLAAAAARSGSPEEKLEIAKKALELAMKSKDEEVIRLALLAAVLAARSDDEEVLKIVKKALELAMESKDVEVIRLALEAAVLAARSTDPEKKKCVYEALEKAMESKDEEEIKKELKAAVEKARSTEGSGSHHWGSTHHHHHH
modifications: the two introduced cysteines stochastically labeled with an equal mixture of AlexaFluor 555 C2 maleimide (donor) and AlexaFluor 647 C2 maleimide (acceptor)
B1: the binding result with effector peptide cs074B [1] and with effector peptide cs201B [2] was “no binding (tested: µM concentrations)” each time. Also, the “fold faster observed on rate than the original peptide cs221B” value with effector protein 3hb21 [3] came out at 5 fold. Further, the Kd in the assay with effector protein 3hb21 [4] is below 2 nM; with effector peptide cs221B [5], 21 nM; with effector protein 3hb21 [6] it was 2.2 nM. Besides, in the assay with effector protein 3hb21 [4], the “fold stronger KD than the original peptide cs221B” value turned out to be 20 fold. The kon in the assay with effector peptide cs221B [7] is 2600 M⁻¹ s⁻¹; with effector protein 3hb21 [8], 13000 M⁻¹ s⁻¹.

B2: FRET(extension) cs074F, labeled with AlexaFluor 555 and AlexaFluor 647 (designed binder)
chain: DEEVQEAVERAEELREEAEELIKKARKTGDPELLRKALEALECAVRAVEEAIKRNPDNDEAVETAVRLARELKKVAEELQERAKKTGDPELLKLALRALKVAVRAVKLAIKSNPDNEEAVKTAVRLARELLKVAEELKERAEKTGDPRLLLLAAEAIAWAIEAVFLAAKASENTEGALEAARAAVKLAEVAKRIAKLLQRDAKKEGDPELLKLALRALELAVRAVELAIKENPDNDEAVETAVRLARELKKVAEELQERAKKTGDPELLKLALRALEVAVRAVELAIKSNPDNEEAVETAKRLAEELRKVAELLEERACETGDPELQELAKRAKEVADRARELAKKSNPNNGSHHHHHH
modifications: the two introduced cysteines stochastically labeled with an equal mixture of AlexaFluor 555 C2 maleimide (donor) and AlexaFluor 647 C2 maleimide (acceptor)
notes: Extended hinge cs074 used in the FRET assays; also called extended labeled hinge cs074F
On to B2, for which the Kd in the assay with effector peptide cs074B [9], in the assay with effector protein 3hb03, in the assay with effector protein 3hb04, in the assay with effector protein 3hb05, with effector protein 3hb08 and with effector protein 3hb11 was below 2 nM each time. Besides, the Kd with effector protein 3hb12 is below 2 nM; with effector peptide cs201B [11], 2500 nM; with effector peptide cs221B [12], 130 nM. The kon in the assay with effector peptide cs074B [10] is 170000 M⁻¹ s⁻¹.

B3: FRET(extension) cs201F, labeled with AlexaFluor 555 and AlexaFluor 647 (designed binder)
chain: MSGDEEVQEAVERAEELREEAEELIKKARKTGDPELLRKALEALEEAVRAVEEAICRNPDNDEAVETAVRLARELKKVAEELQERAKKTGDPELLKLALRALEVAVRAVELAIKSNPDNDEAVETAVRLARELKKVAEELQERAKKTGDPELLKLALRALEVAVRAVELAIKRNPDNEEAIKTALRLARELRKVAKELIERARKTGDAELLKKALEAARVAVEAVRLAAEYNKENAEKMAELLVELAELAREVADVLIELAEKTGDPELLKKALEVLEEAVEAVRLAIEYDPDHDEAVETAVRLARELKKVAEELQERAKKTGDPELLKLALRALEVAVRAVELAIKSNPDNEEAVETAKRLAEELRKVAELLEERAKETGDPCLQELAKRAKEVADRARELAKKSNPNNGSGSHHWGSTHHHHHH
modifications: the two introduced cysteines stochastically labeled with an equal mixture of AlexaFluor 555 C2 maleimide (donor) and AlexaFluor 647 C2 maleimide (acceptor)
notes: also called FRET-labeled hinge cs201F
With B3, the binding result with effector peptide cs074B [1] and in the assay with effector peptide cs221B [13] was “no binding (tested: µM concentrations)” throughout. This molecule also showed a Kd with effector peptide cs201B [14] of 20 nM. This molecule displayed a kon in the assay with effector peptide cs201B [15] of 4500 M⁻¹ s⁻¹.

The term Kd denotes a measure of binding affinity in units of concentration. The term kon denotes a measure of how fast the partners come together. A higher kon goes with fast association.
